Biological target: T1, MBP-AF9 (MBP carrier left out. The construct limits are not given; the C-terminal ANC1 homology domain (AHD), named as the DOT1L-binding domain, is taken by convention as about 500-568.)
T1 chain: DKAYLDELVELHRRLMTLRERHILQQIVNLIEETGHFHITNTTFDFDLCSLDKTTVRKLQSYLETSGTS
Assay: fluorescence polarisation; competitive: serial dilutions of peptide with fixed MBP-AF9 (200 nM) and N-Flu-DOT1L (10 nM); 100 mM NaH2PO4, 150 mM NaCl, 0.1% β-ME, 0.01% Triton X-100; room temperature, 3 h
Conditions: both partners purified

- Ki: 20 nM
B1: DOT1L WT 10mer (865–874) peptide (peptide, UniProt Q8TEK3 865-874, looked up)
peptide: LPISIPLSTV
notes: the DOT1L constructs of the cell lines are human; also called 10mer peptide from residues 865–874; 10mer DOT1L peptide; source: synthetic peptide

Reference: PMC7914713, “Elucidating the Importance of DOT1L Recruitment in MLL-AF9 Leukemia and Hematopoiesis” (Cancers, 2021)
